In patent US20240269310A1 (GENERAL HOSPITAL, published 2024):

Columns and labels:
[1] = molecular target: T1, recombinant human CDH1 (R&D Systems 8505-EC-050) (human, UniProt P12830 155-707); assay: western blot of recombinant purified protein
T1 construct: Bought protein; also called hCDH1; E-cadherin
T1 sequence (looked up): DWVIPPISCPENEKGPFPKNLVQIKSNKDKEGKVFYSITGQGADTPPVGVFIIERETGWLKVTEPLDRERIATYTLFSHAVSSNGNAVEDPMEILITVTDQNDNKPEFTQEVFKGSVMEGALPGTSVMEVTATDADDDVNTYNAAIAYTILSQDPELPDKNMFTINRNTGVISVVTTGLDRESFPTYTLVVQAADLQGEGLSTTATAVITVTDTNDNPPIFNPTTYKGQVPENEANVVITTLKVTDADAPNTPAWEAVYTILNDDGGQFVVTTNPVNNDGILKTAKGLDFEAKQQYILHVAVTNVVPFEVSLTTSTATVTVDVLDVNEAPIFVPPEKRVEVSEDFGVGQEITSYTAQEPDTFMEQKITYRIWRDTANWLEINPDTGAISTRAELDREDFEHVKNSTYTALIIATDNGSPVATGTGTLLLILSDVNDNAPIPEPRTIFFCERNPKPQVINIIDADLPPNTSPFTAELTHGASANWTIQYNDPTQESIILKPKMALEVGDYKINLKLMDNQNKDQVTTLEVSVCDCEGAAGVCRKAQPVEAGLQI
Method: (§1) Western blot analysis was performed on whole cell extracts prepared with RIPA buffer. Proteins were separated on 4-15% polyacrylamide gradient-SDS gels (Bio-Rad), and transferred onto nitrocellulose membrane (Invitrogen). Immunoblots were visualized with Enhanced Chemiluminescence (Perkin-Elmer). Primary antibodies were used against E-cadherin (1:5000; BDBiosciences Clone 36), N-cadherin (1:500; EBiosciences Clone 8C11) and GAPDH (1:2000; Millipore ABS16). 23C6 was also used as a primary antibody for western blot analysis (1:250). Recombinant protein obtained as follows: human CDH1 (R&D Systems 8505-EC-050), murine CDH1 (R&D Systems 8875-EC-050), human CDH2 (R&D Systems 1388NC050) and human CDH11 (Elabscience #PKSH032136).

[2] = molecular target: T2, recombinant murine CDH1 (R&D Systems 8875-EC-050) (murine, UniProt P09803 157-709); assay: western blot of recombinant purified protein
T2 construct: Bought protein; also called mCDH1; recombinant murine E-cadherin protein
T2 sequence (looked up): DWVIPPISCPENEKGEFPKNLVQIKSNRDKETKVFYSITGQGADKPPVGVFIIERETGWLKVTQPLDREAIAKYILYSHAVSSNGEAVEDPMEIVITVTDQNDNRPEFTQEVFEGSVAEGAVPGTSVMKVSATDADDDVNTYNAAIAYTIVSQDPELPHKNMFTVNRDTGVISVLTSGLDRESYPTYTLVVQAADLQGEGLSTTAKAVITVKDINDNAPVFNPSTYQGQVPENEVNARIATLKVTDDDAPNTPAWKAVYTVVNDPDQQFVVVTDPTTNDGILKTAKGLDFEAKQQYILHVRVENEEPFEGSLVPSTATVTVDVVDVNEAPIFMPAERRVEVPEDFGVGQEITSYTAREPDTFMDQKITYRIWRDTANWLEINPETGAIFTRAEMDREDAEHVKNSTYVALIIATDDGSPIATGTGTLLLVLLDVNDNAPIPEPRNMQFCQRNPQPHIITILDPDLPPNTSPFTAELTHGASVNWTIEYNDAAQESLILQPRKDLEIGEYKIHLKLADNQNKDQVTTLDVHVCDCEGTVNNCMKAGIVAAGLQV
Method: as §1

[3] = molecular target: T3, CDH1 (E-cadherin) as expressed by PDAC9 cells (human, UniProt P12830 155-882); assay: flow cytometry of fixed PDAC9 cells after siRNA knockdown
T3 construct: whole, on cells; On fixed cells in flow cytometry; In whole cell lysates in the western blot; PDAC9 is described as patient-derived and is used among the human xenograft models
T3 sequence (looked up): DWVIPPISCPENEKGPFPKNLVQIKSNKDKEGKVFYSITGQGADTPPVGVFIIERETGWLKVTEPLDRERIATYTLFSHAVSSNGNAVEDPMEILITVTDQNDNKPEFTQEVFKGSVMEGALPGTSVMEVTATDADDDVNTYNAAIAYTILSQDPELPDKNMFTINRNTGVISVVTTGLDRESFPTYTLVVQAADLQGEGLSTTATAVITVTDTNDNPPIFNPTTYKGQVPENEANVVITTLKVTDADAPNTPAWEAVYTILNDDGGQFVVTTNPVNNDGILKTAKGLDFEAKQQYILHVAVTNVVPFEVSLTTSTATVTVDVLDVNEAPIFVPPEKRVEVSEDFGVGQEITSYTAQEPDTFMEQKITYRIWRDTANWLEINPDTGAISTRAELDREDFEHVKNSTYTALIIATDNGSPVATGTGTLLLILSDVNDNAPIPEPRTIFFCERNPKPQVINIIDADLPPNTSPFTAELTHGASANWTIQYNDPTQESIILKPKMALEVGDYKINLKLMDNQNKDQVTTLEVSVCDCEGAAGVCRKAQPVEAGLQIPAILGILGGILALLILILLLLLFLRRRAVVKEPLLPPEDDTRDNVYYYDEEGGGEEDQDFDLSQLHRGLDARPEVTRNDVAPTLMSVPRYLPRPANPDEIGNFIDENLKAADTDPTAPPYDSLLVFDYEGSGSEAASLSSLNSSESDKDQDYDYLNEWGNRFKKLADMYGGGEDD
Method: Cell lines were routinely checked for mycoplasma (MycoAlert, Lonza), and were obtained from ATCC. […] PDAC9 were grown as previously described (Porter et al., Proc Natl Acad Sci USA, (2019)). Viability assays were performed at 48 hours after treatment with varying concentration of the 23C6 antibody or PBS control. Viability was determined using Cell Titer Glo reagent (Promega). Proliferation assays were performed by treating MDA-MB-231 cells with a single dose of 23C6 antibody or PBS control and timepoints as indicated, where the relative cell number was determined with the Cell TiterGlo reagent. For migration assays, the MDA-MB-231 cells were harvested with trypsin, and the cells suspended in serum free media. […] The cell suspensions were treated with 23C6 or control, and after 48 hours, the number of cells migrating through the membrane was determined by crystal violet staining and microscopic imaging with automated counting of individual cells using Image J. For siRNA knockdown, ONTARGETplus siRNA smartpools (Horizon Discovery) were obtained and transfected using Lipofectamine RNAiMax reagent (Invitrogen) and the cells harvested for analysis after 5 days. For flow cytometry, in brief the cells were fixed with 4% PFA, blocked with 5% BSA in PBS and incubated with the 23C6 antibody at 1:500 followed by anti-mouse IgG-AlexaFlour 555 and then analyzed on BD Fortessa machine.

[4] = molecular target: T4, CDH11 as expressed by human breast cancer cells (MDA-MB-231 and breast cancer CTC lines Brx-142, Brx-330, … (human, UniProt P55287 54-796)); assay: western blot of whole cell extracts of MDA-MB-231 and CTC lines; shRNA knockdown as specificity control
T4 construct: whole, on cells; On cells in immunofluorescence and immunohistochemistry; In whole cell extracts (RIPA, SDS gel) in the western blots; also called Cadherin 11; OB-cadherin
T4 sequence (looked up): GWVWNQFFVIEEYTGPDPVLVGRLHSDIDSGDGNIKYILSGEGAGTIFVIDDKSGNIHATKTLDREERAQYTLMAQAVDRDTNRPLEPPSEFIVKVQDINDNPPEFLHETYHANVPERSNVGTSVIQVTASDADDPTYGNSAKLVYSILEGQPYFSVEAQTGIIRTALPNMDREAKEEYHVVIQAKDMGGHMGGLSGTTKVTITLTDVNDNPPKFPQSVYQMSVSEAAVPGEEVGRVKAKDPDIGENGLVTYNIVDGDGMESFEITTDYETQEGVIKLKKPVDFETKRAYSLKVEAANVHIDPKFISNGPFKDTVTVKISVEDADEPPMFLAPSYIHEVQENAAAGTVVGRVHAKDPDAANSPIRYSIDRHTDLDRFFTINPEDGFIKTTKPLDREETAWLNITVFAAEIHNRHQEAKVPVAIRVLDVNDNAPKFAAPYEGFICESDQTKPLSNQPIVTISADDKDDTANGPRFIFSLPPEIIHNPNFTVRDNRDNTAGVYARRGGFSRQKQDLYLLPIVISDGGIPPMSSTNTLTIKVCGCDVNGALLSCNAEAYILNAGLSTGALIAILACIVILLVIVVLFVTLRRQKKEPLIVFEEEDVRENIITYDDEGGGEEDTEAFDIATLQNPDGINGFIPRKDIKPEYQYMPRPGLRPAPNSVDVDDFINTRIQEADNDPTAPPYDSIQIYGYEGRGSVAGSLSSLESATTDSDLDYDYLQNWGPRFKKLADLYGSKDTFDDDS
Method: FIG. 1 is the RNA expression levels of cell adhesion molecules in the CTC lines Brx-82, Brx-142, Brx-394 AVG, Brx-189, Brx-390, Brx-121, Brx-292, Brx-319, Brx-250, Brx-140, or Brx-401 from breast cancer patients. The cell adhesion molecule CDH11 was expressed at the RNA level in multiple breast CTC cell lines (FIG. 1, black outline).
as §1

Measured: binding result

B1: anti-CDH11 monoclonal antibody clone 23C6 (antibody, V domains shown)
VH: EFQLQQSGPELVKPGASVKISCKASGYSFTDYNMNWVKQSNGKSLEWIGAINPNYGTTSYNQKFKGKATLTVDQSSSTAYMQLNSLTSEDSAVYYCTRLYYGSRYFDVWGTGTTVTVSS
VL: QIVVTQSPAIMSASLGERVTMTCTASSSVSSSYLHWYQQKPGSSPKLWIYSTSNLASGVPARFSGSGSGTSYSLTISSMEAEDVATYYCHQYHRSPPTFGGGAKLEIK
notes: also called 23C6 antibody; 23C6 anti-CDH11 antibody
binds: all assays above
